Key:
[1] = biological target: T1, OsLHY (Oryza sativa, UniProt A0A0P0XBU0 1-719); assay: EMSA
[2] = biological target: T1, OsLHY; assay: competition
[3] = biological target: T1, OsLHY; assay: competition; remark: listed apart in the source
[4] = biological target: T2, OsNAC15 (Oryza sativa, UniProt K9LKF1 1-301); assay: EMSA
T2 sequence: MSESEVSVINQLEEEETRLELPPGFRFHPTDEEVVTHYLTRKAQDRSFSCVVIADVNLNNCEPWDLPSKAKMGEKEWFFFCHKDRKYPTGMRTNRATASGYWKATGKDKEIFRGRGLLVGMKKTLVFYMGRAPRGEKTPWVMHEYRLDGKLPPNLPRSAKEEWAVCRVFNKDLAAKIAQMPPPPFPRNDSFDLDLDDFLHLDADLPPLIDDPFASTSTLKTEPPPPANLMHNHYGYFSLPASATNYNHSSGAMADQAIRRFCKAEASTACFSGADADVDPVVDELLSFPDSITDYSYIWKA

T1 sequence (A0A0P0XBU0 whole entry): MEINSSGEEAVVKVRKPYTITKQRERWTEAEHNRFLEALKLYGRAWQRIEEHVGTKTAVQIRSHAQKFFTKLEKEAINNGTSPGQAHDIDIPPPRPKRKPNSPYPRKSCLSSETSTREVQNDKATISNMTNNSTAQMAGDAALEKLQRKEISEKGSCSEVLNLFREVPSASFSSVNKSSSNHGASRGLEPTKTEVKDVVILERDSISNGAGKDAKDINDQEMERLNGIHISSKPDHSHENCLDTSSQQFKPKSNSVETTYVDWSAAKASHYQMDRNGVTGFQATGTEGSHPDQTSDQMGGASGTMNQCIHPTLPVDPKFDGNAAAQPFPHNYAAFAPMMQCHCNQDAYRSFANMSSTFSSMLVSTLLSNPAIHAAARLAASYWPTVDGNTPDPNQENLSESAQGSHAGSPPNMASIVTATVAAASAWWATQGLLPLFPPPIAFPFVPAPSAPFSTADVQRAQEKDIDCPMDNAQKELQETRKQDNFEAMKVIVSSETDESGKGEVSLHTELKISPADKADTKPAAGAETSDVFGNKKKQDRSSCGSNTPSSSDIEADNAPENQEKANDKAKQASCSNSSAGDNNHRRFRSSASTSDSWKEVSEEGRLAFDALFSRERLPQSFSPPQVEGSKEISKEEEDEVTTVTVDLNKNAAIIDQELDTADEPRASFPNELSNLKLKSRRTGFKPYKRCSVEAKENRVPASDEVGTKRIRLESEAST

B1: OsLHY Bio-probe, 3x AAGATATTT (dsDNA)
DNA 1: AAGATATTTAAGATATTTAAGATATTT
DNA 2: AAATATCTTAAATATCTTAAATATCTT
[1]
  binding result: binds

B2: OsLHY mCold probe, 3x AAGGCGCCC (dsDNA)
DNA 1: AAGGCGCCCAAGGCGCCCAAGGCGCCC
DNA 2: GGGCGCCTTGGGCGCCTTGGGCGCCTT
[2]
  binding result: no binding

B3: OsLHY Cold probe, 3x AAGATATTT (dsDNA)
DNA 1: AAGATATTTAAGATATTTAAGATATTT
DNA 2: AAATATCTTAAATATCTTAAATATCTT
[3]
  binding result: binds

B4: OsNAC15 Bio-probe, 3x AGCAAGA (dsDNA)
DNA 1: AGCAAGAAGCAAGAAGCAAGA
DNA 2: TCTTGCTTCTTGCTTCTTGCT
[4]
  binding result: binds

From PMC12343898
